Data reported in patent US20180009908.
Where two headings read alike, the source gives them in different places.

What was measured:
[1] = molecular target: T1, HA-tagged human IgG1 Fc portion with CH3 mutations Y349S, K370Y, T366M, K409V; test: UPLC SEC of protein G-purified one-arm antibody co-expressed in HEK293F
T1 chain: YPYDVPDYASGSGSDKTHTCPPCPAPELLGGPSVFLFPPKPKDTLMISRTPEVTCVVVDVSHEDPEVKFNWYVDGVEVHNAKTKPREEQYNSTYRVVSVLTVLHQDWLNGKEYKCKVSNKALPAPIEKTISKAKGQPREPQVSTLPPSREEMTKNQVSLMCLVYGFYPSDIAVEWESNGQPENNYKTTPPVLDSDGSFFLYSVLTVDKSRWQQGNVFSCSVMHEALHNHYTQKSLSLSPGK

[2] = molecular target: T2, HA-tagged human IgG1 Fc portion with CH3 mutations Y349S, K370Y, T366V, K409V; test: as above
T2 chain: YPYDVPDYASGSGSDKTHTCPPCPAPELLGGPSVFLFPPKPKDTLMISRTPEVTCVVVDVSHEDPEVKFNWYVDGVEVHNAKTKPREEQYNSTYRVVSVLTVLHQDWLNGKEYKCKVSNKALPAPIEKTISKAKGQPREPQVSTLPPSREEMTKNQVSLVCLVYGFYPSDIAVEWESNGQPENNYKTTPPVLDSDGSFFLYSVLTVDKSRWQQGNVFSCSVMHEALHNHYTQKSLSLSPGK

[3] = LCMS, IgG4 BsAb co-expression; HCB homodimer species
[4] = molecular target: matuzumab HC_20.8_B + matuzumab LC (IgG1); test: LCMS, IgG1 BsAb co-expression in HEK293F
[5] = LCMS, IgG1 BsAb co-expression; HCA homodimer species
[6] = molecular target: matuzumab HC_20.8_B + matuzumab LC (IgG1); test: LCMS, IgG1 BsAb co-expression; HCA/HCB heterodimer carrying two LC1
[7] = molecular target: matuzumab HC_20.8_B + matuzumab LC (IgG1); test: LCMS, IgG1 BsAb co-expression; HCA/HCB heterodimer carrying two LC2

B1: anti-c-Met 5D5 VH-human IgG1 HC with CH3 mutations E357D, S364Q, Y407A, with 5D5 light chain (protein)
chain 1: EVQLVESGGGLVQPGGSLRLSCAASGYTFTSYWLHWVRQAPGKGLEWVGMIDPSNSDTRFNPNFKDRFTISADTSKNTAYLQMNSLRAEDTAVYYCATYRSYVTPLDYWGQGTLVTVSSASTKGPSVFPLAPSSKSTSGGTAALGCLVKDYFPEPVTVSWNSGALTSGVHTFPAVLQSSGLYSLSSVVTVPSSSLGTQTYICNVNHKPSNTKVDKRVEPKSCDKTHTCPPCPAPELLGGPSVFLFPPKPKDTLMISRTPEVTCVVVDVSHEDPEVKFNWYVDGVEVHNAKTKPREEQYNSTYRVVSVLTVLHQDWLNGKEYKCKVSNKALPAPIEKTISKAKGQPREPQVYTLPPSREDMTKNQVQLTCLVKGFYPSDIAVEWESNGQPENNYKTTPPVLDSDGSFFLASKLTVDKSRWQQGNVFSCSVMHEALHNHYTQKSLSLSPGK
chain 2: DIQMTQSPSSLSASVGDRVTITCKSSQSLLYTSSQKNYLAWYQQKPGKAPKLLIYWASTRESGVPSRFSGSGSGTDFTLTISSLQPEDFATYYCQQYYAYPWTFGQGTKVEIKRTVAAPSVFIFPPSDEQLKSGTASVVCLLNNFYPREAKVQWKVDNALQSGNSQESVTEQDSKDSTYSLSSTLTLSKADYEKHKVYACEVTHQGLSSPVTKSFNRGEC
**Q.** For B1, which % heterodimer (UPLC) [1] is on record?
**A.** 93%

**Q.** And the % heterodimer (UPLC) [2]?
**A.** 92.5%

B2: anti-c-Met 5D5 VH-human IgG1 HC with CH3 mutations E356G, E357D, S364Q, Y407A, with 5D5 light chain (protein)
chain 1: EVQLVESGGGLVQPGGSLRLSCAASGYTFTSYWLHWVRQAPGKGLEWVGMIDPSNSDTRFNPNFKDRFTISADTSKNTAYLQMNSLRAEDTAVYYCATYRSYVTPLDYWGQGTLVTVSSASTKGPSVFPLAPSSKSTSGGTAALGCLVKDYFPEPVTVSWNSGALTSGVHTFPAVLQSSGLYSLSSVVTVPSSSLGTQTYICNVNHKPSNTKVDKRVEPKSCDKTHTCPPCPAPELLGGPSVFLFPPKPKDTLMISRTPEVTCVVVDVSHEDPEVKFNWYVDGVEVHNAKTKPREEQYNSTYRVVSVLTVLHQDWLNGKEYKCKVSNKALPAPIEKTISKAKGQPREPQVYTLPPSRGDMTKNQVQLTCLVKGFYPSDIAVEWESNGQPENNYKTTPPVLDSDGSFFLASKLTVDKSRWQQGNVFSCSVMHEALHNHYTQKSLSLSPGK
chain 2: DIQMTQSPSSLSASVGDRVTITCKSSQSLLYTSSQKNYLAWYQQKPGKAPKLLIYWASTRESGVPSRFSGSGSGTDFTLTISSLQPEDFATYYCQQYYAYPWTFGQGTKVEIKRTVAAPSVFIFPPSDEQLKSGTASVVCLLNNFYPREAKVQWKVDNALQSGNSQESVTEQDSKDSTYSLSSTLTLSKADYEKHKVYACEVTHQGLSSPVTKSFNRGEC
**Q.** With B2 as the protein, how does the % heterodimer (UPLC) [1] read?
**A.** 94%

**Q.** And the % heterodimer (UPLC) [2]?
**A.** 92%

B3: anti-c-Met 5D5 VH-human IgG1 HC with CH3 mutations E357D, S364R, Y407A, with 5D5 light chain (protein)
chain 1: EVQLVESGGGLVQPGGSLRLSCAASGYTFTSYWLHWVRQAPGKGLEWVGMIDPSNSDTRFNPNFKDRFTISADTSKNTAYLQMNSLRAEDTAVYYCATYRSYVTPLDYWGQGTLVTVSSASTKGPSVFPLAPSSKSTSGGTAALGCLVKDYFPEPVTVSWNSGALTSGVHTFPAVLQSSGLYSLSSVVTVPSSSLGTQTYICNVNHKPSNTKVDKRVEPKSCDKTHTCPPCPAPELLGGPSVFLFPPKPKDTLMISRTPEVTCVVVDVSHEDPEVKFNWYVDGVEVHNAKTKPREEQYNSTYRVVSVLTVLHQDWLNGKEYKCKVSNKALPAPIEKTISKAKGQPREPQVYTLPPSREDMTKNQVRLTCLVKGFYPSDIAVEWESNGQPENNYKTTPPVLDSDGSFFLASKLTVDKSRWQQGNVFSCSVMHEALHNHYTQKSLSLSPGK
chain 2: DIQMTQSPSSLSASVGDRVTITCKSSQSLLYTSSQKNYLAWYQQKPGKAPKLLIYWASTRESGVPSRFSGSGSGTDFTLTISSLQPEDFATYYCQQYYAYPWTFGQGTKVEIKRTVAAPSVFIFPPSDEQLKSGTASVVCLLNNFYPREAKVQWKVDNALQSGNSQESVTEQDSKDSTYSLSSTLTLSKADYEKHKVYACEVTHQGLSSPVTKSFNRGEC
**Q.** With B3 as the protein, how does the % heterodimer (UPLC) [1] read?
**A.** 85%

**Q.** What about the % heterodimer (UPLC) [2] of the same protein?
**A.** 85%

B4: matuzumab HC_7.8.60_B + matuzumab LC (IgG4 HC backbone) (protein)
chain 1: QVQLVQSGAEVKKPGASVKVSCKASGYTFTSHWMHWVRYAPGQGLEWIGEFNPSNGRTNYNEKFKSKATMTVDTSTNTAYMELSSLRSEDTAVYYCASRDYDYDGRYFDYWGRGTLVTVSSASTKGPSVFPLAPCSRSTSESTAALGCLVKDYFPEPVTVSWNSGALTSGVHTFPAVLQSSGLYSLSSVVTVPSSSLGTKTYTCNVDHKPSNTKVDKRVESDYGPPCPPCPAPEAAGGPSVFLFPPKPKDTLMISRTPEVTCVVVDVSQEDPEVQFNWYVDGVEVHNAKTKPREEQFQSTYRVVSVLTVLHQDWLNGKEYKCKVSNKGLPSSIEKTISKAKGQPRRPRVYTLPPSQEEMTKNQVSLVCLVKGFYPSDIAVEWESNGQPENNYKTTPPVLDSDGSFFLYSVLTVDKSRWQEGNVFSCSVMHEALHNHYTQKSLSLSLG
chain 2: DIQMTQSPSSLSASVGDRVTITCSASSSVTYMYWYQRKPGDAPKLLIYDTSNLASGVPSRFSGSGSGTDYTFTISSLQPEDIATYYCQQWSSHIFTFGQGTKVEIKRTVAAPSVFIFPPSKEQLKSGTASVVCLLNNFYPREAKVQWKVDNALQSGNSQESVTEQDSKDSTYSLSSTLTLSKADYEKHKVYACEVTHQGLSSPVTKSFNRGEC
**Q.** For B4, which % BB Homodimer (incorrect assembly) [3] is on record?
**A.** 0%

B5: matuzumab HC_20.8.34_B + matuzumab LC (IgG4 HC backbone) (protein)
chain 1: QVQLVQSGAEVKKPGASVKVSCKASGYTFTSHWMHWVRYAPGQGLEWIGEFNPSNGRTNYNEKFKSKATMTVDTSTNTAYMELSSLRSEDTAVYYCASRDYDYDGRYFDYWGRGTLVTVSSASTKGPSVFPLAPCSRSTSESTAALGCLVKDYFPEPVTVSWNSGALTSGVHTFPAVLQSSGLYSLSSVVTVPSSSLGTKTYTCNVDHKPSNTKVDKRVESDYGPPCPPCPAPEAAGGPSVFLFPPKPKDTLMISRTPEVTCVVVDVSQEDPEVQFNWYVDGVEVHNAKTKPREEQFQSTYRVVSVLTVLHQDWLNGKEYKCKVSNKGLPSSIEKTISKAKGQPREPQVYTLPPSQGDMTKNQVQLTCLVKGFYPSDIAVEWESNGQPENNYKTTPPVLDSDGSFFLASRLTVDKSRWQEGNVFSCSVMHEALHNHYTQKSLSLSLG
chain 2: DIQMTQSPSSLSASVGDRVTITCSASSSVTYMYWYQRKPGDAPKLLIYDTSNLASGVPSRFSGSGSGTDYTFTISSLQPEDIATYYCQQWSSHIFTFGQGTKVEIKRTVAAPSVFIFPPSKEQLKSGTASVVCLLNNFYPREAKVQWKVDNALQSGNSQESVTEQDSKDSTYSLSSTLTLSKADYEKHKVYACEVTHQGLSSPVTKSFNRGEC
**Q.** Which % BB Homodimer (incorrect assembly) ([3]; MetMAb × Matuzumab IgG BsAbs (with select CH3 Designs)) does the source give for B5 here?
**A.** 0%

**Q.** What about the % BB Homodimer (incorrect assembly) ([3]; Pertuzumab × Matuzumab IgG BsAbs (with select CH3 Designs)) of the same protein?
**A.** 3.6%

B6: MetMAb HC_20.8_A + MetMAb LC (IgG1) (protein)
chain 1: EVQLVESGGGLVQPGGSLRLSCAASGYTFTSYWLHWVRKAPGKGLEWVGMIDPSNSDTRFNPEFKDRFTISADTSKNTAYLQMNSLRAEDTAVYYCATYRSYVTPLDYWGQGTLVTVSSASTKGPSVFPLAPSSKSTSGGTAALGCLVKDYFPEPVTVSWNSGALTSGVATGPAVLQSSGLYSLSSVVTVPSSSLGTQTYICNVNHKPSNTKVDKKVEPKSCDKTHTCPPCPAPELLGGPSVFLFPPKPKDTLMISRTPEVTCVVVDVSHEDPEVKFNWYVDGVEVHNAKTKPREEQYQSTYRVVSVLTVLHQDWLNGKEYKCKVSNKALPAPIEKTISKAKGQPREPQVSTLPPSREEMTKNQVSLVCLVYGFYPSDIAVEWESNGQPENNYKTTPPVLDSDGSFFLYSVLTVDKSRWQQGNVFSCSVMHEALHNHYTQKSLSLSPGK
chain 2: RIQMTQSPSSLSASVGDRVTITCKSSQSLLYTSSQKNYLAWYQDKPGKAPKLLIYWASTRESGVPSRFSGSGSGTDFTLTISSLQPEDFATYYCQQYYAYPWTFGQGTKVEIKGQPKAAPSVTLFPPSSEELQANKATLVCYISDFYPGAVTVAWKADSSPVKAGVETTTPSKQSNNKYAAWSYLSLTPEQWKSHRSYSCQVTHEGSTVEKTVAPTEC
**Q.** Which results are given for B6?
**A.** % AB (LC1/LC2) (correct IgG BsAb assembly) [4]: 75.6%; % AA Homodimer (incorrect assembly) [5]: 0%; % AB (2x LC1) (incorrect assembly) [6]: 0%; % AB (2x LC2) (incorrect assembly) [7]: 24.4%
